Blank lines part the entries; values can stand above or below the binder they belong to.
Tests used:
[1] = target: T1, rat TrkB extracellular domain expressed with a C-terminal myc-myc-hexahistidine tag (rat, UniProt Q63604 32-429); test: SPR, mAb captured (anti-hFc), 37C
T1 construct: also called rTrkB.mmH; rTRKB.mmH
Description: (§1) Equilibrium dissociation constants (KD values) for TrkB binding to purified anti-TrkB monoclonal antibodies were determined using a real-time surface plasmon resonance biosensor using a Biacore 4000 instrument. All binding studies were performed in 10 mM Hepes pH 7.4, 150 mM NaCl, 3 mM EDTA, and 0.05% v/v Surfactant Tween-20 (HBS-ET running buffer) at 25° C. and 37° C. […] Binding studies were performed on following TrkB reagents; human TrkB extracellular domain expressed with a C-terminal myc-myc-hexahistidine tag (hTRKB.mmH; SEQ ID NO: 76; Accession number NP_001018074.1), mouse TrkB extracellular domain expressed with a C-terminal myc-myc-hexahistidine tag (mTRKB.mmH; SEQ ID NO: 79; Accession number NP_001020245), rat TrkB extracellular domain expressed with a C-terminal myc-myc-hexahistidine tag (rTRKB.mmH; SEQ ID NO: 84; Accession number NP_036863.1), and human TrkB extracellular domain expressed with a C-terminal mouse IgG2a Fc tag (hTrkB-mFc; SEQ ID NO: 77; Accession number NP_001018074.1). […] Kinetic association (kₐ) and dissociation (kd) rate constants were determined by fitting the real-time binding sensorgrams to a 1:1 binding model with mass transport limitation using Scrubber 2.0c curve-fitting software. Binding dissociation equilibrium constants (KD) and dissociative half-lives (t½) were calculated from the kinetic rate constants as: […]

[2] = target: T2, human TrkB extracellular domain expressed with a C-terminal myc-myc-hexahistidine tag (human, UniProt Q16620 32-430); test: SPR, mAb captured (anti-hFc), 37C
T2 construct: also called hTrkB.mmH; hTRKB.mmH
T2 sequence (Q16620 other isoform, or with tags, fused parts or gaps): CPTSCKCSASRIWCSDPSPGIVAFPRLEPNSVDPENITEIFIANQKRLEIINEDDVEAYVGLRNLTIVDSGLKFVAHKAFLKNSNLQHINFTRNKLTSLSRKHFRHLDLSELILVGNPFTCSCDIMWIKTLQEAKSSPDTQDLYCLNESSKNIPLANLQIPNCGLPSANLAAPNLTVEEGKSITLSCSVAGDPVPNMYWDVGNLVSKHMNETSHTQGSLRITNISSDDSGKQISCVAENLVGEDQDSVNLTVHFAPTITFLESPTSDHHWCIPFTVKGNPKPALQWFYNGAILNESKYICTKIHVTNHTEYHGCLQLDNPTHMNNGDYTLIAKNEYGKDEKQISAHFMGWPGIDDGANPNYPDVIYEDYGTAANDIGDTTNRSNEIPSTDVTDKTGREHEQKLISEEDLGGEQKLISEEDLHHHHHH
Description: as §1

[3] = target: T3, mouse TrkB extracellular domain expressed with a C-terminal myc-myc-hexahistidine tag (mouse, UniProt P15209 32-429); test: SPR, mAb captured (anti-hFc), 37C
T3 construct: also called mTrkB.mmH; mTRKB.mmH
T3 sequence (P15209 other isoform, or with tags, fused parts or gaps): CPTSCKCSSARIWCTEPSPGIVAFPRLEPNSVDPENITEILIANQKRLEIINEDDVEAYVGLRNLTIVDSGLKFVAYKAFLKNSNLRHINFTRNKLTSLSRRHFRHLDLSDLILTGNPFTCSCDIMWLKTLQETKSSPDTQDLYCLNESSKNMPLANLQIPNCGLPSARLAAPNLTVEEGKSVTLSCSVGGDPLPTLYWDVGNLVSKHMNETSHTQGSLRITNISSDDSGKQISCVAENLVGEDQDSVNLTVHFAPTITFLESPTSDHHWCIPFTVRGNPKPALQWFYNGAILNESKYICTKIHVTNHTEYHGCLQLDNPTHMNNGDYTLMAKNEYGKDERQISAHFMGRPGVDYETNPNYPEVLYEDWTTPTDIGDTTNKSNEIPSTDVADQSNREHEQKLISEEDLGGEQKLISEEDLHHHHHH
Description: as §1

[4] = target: T4, human TrkB extracellular domain expressed with a C-terminal mouse IgG2a Fc tag (human); test: SPR, mAb captured (anti-hFc), 37C
T4 construct: also called hTrkB-mFc; hTrkB.mFc
T4 sequence (chain, as listed by the source limits assumed): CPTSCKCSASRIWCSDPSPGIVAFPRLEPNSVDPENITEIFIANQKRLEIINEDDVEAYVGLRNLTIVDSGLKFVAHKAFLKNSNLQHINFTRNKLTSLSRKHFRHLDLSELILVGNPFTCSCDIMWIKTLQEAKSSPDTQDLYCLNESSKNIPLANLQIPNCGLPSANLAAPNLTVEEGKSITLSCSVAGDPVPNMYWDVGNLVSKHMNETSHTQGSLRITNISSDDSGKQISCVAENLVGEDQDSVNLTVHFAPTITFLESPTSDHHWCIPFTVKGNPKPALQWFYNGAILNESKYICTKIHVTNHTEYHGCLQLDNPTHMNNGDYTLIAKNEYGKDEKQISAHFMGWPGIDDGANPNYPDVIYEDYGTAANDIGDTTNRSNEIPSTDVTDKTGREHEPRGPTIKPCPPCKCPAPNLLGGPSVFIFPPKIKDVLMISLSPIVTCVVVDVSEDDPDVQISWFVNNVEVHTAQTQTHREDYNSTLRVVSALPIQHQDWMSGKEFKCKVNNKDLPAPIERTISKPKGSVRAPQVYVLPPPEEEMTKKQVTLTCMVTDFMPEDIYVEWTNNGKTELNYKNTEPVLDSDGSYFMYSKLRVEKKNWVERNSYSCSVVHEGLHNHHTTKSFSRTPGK
Description: as §1

mouse TrkB.hFc [5] = target: T5, mouse TrkB.hFc (mouse); test: blocking ELISA, mouse TrkB.hFc pre-mixed with mAb, plate-coated BDNF
T5 construct: also called mTrkB.hFc; mTrkB-hFc
T5 sequence (chain, as listed by the source limits assumed): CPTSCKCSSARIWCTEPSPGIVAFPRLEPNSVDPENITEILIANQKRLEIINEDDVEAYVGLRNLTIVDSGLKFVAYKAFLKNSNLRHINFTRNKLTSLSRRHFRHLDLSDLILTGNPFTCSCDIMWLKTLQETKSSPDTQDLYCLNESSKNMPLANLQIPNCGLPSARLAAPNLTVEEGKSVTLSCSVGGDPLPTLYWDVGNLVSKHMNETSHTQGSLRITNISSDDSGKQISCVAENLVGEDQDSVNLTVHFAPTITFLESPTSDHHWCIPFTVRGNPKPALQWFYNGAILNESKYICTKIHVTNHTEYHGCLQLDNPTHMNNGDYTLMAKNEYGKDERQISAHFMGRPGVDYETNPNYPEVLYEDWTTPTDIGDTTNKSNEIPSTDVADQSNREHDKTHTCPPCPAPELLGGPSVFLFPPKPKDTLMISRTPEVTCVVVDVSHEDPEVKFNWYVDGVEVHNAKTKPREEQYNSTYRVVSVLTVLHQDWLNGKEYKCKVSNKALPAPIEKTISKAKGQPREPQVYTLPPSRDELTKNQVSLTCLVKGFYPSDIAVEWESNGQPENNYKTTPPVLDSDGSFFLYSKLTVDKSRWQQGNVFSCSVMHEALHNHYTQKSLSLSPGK
Description: Experiments were carried out using the following procedure. Human BDNF was coated at a concentration of 0.5 μg/mL (for blocking mouse TrkB.hFc interaction) or 0.3 μg/mL (for blocking rat TrkB.mmh interaction) in PBS on 96-well microtiter plate and incubated overnight at 4° C. […] In a 96-well dilution plate, 850 pM mouse TrkB.hFc or rat TrkB.mmh was mixed with the three-fold serially diluted anti-mouse TrkB antibodies and control antibody. The final antibody concentrations ranged from 1.69 pM to 100 nM. The protein-antibody mix was incubated at room temperature (RT) for 1 hour. The pre-bound mix was then transferred in duplicates to microtiter plates coated with BDNF. A control containing assay buffer alone was included to calculate the baseline of the assay. The ELISA plates were incubated at RT for 1 hour and then washed with plate washing solution. Plate-bound mouse TrkB.hFc was detected with HRP-conjugated goat anti-human Fcγ fragment specific antibody (Jackson Immunoresearch) and rat TrkB.mmh was detected with HRP-conjugated anti-histidine antibody (Qiagen). The plates were incubated with detection antibody for 1 hour at RT and then washed with plate washing solution. The assay plates were developed with TMB colorimetric substrates according to the manufacturer's recommended procedure.
The absorbance at 450 nm for each well was recorded and plotted as a function of the concentration of antibody. Data was analyzed in GraphPad Prism software using a four-parameter logistic equation over an 11-point dose response curve and IC₅₀ values were calculated. […] Percent blockade at maximum concentration of the antibody tested was calculated as an indicator of the ability of the antibodies to block the binding of TrkB to BDNF on the plate relative to the baseline of the assay. Binding signal of 850 pM mouse or rat TrkB in absence of the antibody was defined as 100% binding or 0% blocking. The baseline signal of assay buffer alone was defined as 0% binding or 100% blocking.

[6] = target: human TrkB expressed on HEK293/SRE-Luc/hTrkB cells (human, UniProt Q16620 32-822); test: cell-based or functional assay
Chain of human TrkB expressed on HEK293/SRE-Luc/hTrkB cells (Q16620 32-822): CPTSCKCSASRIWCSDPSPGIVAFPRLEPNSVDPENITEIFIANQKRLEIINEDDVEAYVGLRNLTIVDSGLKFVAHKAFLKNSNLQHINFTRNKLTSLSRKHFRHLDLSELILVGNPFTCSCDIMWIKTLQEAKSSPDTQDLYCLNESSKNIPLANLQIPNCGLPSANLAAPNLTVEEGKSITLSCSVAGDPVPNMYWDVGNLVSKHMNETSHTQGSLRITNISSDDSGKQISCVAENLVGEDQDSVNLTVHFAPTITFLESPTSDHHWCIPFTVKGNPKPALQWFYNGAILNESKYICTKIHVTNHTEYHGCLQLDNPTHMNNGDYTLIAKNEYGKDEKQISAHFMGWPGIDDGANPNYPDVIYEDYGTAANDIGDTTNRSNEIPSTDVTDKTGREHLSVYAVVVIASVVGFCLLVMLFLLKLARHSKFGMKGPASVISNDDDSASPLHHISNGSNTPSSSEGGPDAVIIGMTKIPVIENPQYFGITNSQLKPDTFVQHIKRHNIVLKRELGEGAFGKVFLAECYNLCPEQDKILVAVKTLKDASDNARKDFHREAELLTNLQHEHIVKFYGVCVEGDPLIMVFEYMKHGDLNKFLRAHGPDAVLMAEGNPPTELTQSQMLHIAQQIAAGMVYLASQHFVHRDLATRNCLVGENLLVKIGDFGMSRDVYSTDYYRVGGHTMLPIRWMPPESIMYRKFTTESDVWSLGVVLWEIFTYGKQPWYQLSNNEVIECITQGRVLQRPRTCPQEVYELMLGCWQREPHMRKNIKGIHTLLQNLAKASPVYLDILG

[7] = target: mouse TrkB extracellular domain fused to the transmembrane and cytoplasmic domains of human TrkB, expressed … (mouse; human, UniProt Q16620 431-822, limits assumed); test: cell-based or functional assay
Chain of mouse TrkB extracellular domain fused to the transmembrane and cytoplasmic domains of human TrkB, expressed … (Q16620 other isoform, or with tags, fused parts or gaps limits assumed, form in doubt): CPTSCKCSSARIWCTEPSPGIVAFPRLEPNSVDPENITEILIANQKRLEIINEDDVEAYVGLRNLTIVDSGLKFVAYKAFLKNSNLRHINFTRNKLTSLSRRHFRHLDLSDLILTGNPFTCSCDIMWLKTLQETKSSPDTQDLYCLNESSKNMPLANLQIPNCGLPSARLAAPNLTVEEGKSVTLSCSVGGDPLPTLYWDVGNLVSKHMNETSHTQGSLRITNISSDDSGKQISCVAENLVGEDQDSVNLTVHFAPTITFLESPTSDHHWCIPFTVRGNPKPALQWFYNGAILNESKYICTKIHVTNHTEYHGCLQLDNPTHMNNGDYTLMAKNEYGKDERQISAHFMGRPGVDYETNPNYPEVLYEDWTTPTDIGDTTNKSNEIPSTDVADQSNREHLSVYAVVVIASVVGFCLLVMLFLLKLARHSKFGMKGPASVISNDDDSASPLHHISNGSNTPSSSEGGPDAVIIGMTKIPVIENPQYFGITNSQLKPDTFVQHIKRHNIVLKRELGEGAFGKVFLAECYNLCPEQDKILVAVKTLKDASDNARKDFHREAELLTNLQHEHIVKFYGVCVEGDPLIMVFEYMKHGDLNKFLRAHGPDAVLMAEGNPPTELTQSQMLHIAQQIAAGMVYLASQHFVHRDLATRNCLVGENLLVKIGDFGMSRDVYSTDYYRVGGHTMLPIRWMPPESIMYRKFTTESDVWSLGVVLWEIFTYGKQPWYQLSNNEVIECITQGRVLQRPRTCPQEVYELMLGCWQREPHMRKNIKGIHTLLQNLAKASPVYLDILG

mouse TrkB.hFc [8] = target: T5, mouse TrkB.hFc; test: BLI Octet, captured mTrkB.hFc, 300 nM mAb (BDNF run)
Description: Blocking of BDNF or NT-4 from binding to TrkB by anti-human TrkB or anti-mouse TrkB antibodies was evaluated using a real-time bio-layer interferometry (BLI) based Octet HTX instrument. The entire study was performed in 10 mM HEPES pH 7.4, 300 mM NaCl, 3 mM EDTA, 1 mg/mL BSA, 0.02% NaN3 and 0.05% v/v Surfactant Tween-20 (HBS-EBT running buffer) at 25° C. All the samples were dispensed in a 384 tilted well plate and the plate was placed on the orbital shaker with the shake speed of 1000 rpm. hTrkB.mFc was captured on anti-mFc (AMC) Octet sensors while hTrkB.hFc or mTrkB.hFc were captured on anti-hFc (AHC) Octet sensors by dipping in wells containing 10 μg/mL of TrkB reagents for 2 minutes. hTrkB.mFc or hTrkB.hFc captured Octet biosensors were saturated by dipping in wells containing 300 nM of different TrkB mAbs for 4 minutes followed by dipping Octet biosensors in wells containing 20 nM of BDNF, hNT-4, or mNT-4 for 2 minutes. Binding of BDNF, hNT-4, or mNT-4 to the complex of TrkB and different TrkB mAbs was determined using Scrubber 2.0c analysis software.

T1 sequence (Q63604 other isoform, or with tags, fused parts or gaps): as the sequence (P15209 other isoform, or with tags, fused parts or gaps) above, with T3M, S9T, A10T, V32I, R63K, S84G, M153T, L185I, S394T counted along it

100 nM rTrkB.mmH Bound (RU) [1]: 0 RU
100 nM hTrkB.mmH Bound (RU) [2]: 14 RU
Kd [2]: 63.8 nM
koff [2]: 0.00364 s⁻¹
kon [2]: 57100 M⁻¹ s⁻¹
t½ [2]: 3.2 min
100 nM mTrkBmmH Bound (RU) [3]: 1 RU
100 nM hTrkB-mFc Bound (RU) [4]: 14 RU
Kd [4]: 3.33 nM
koff [4]: 0.000222 s⁻¹
kon [4]: 66500 M⁻¹ s⁻¹
t½ [4]: 52 min
B1: H4H9780P (antibody, human IgG4 S228P, kappa, V domains shown)
VH: QVQLVESGGGVVQPGRSLRLSCAASGFSFSSFGMHWVRQAPGKGLEWVSVISYDGINTYYTDSVKGRFTISRDNSKNTLYLQMNGLRAEDTALYYCVQGSIGTVFEYWGQGTLVTVSS
VL: DIQMTQSPSSLSASVGDRVTITCRASQGISNYLAWYQQKPGKVPKLLIYAASTLQSGVPSRFGGSGSGTDFTLTISSLQPEDVATYYCQKYTSAPFTFGPGTKVDIKR
notes: Fully human anti-human TrkB agonist antibody, human IgG4 Fc; also called H4H9780P-L1

100 nM rTrkB.mmH Bound (RU) [1]: -1 RU
100 nM hTrkB.mmH Bound (RU) [2]: 32 RU
Kd [2]: 2.28 nM
koff [2]: 0.00468 s⁻¹
kon [2]: 2.05e+06 M⁻¹ s⁻¹
t½ [2]: 2.5 min
100 nM mTrkBmmH Bound (RU) [3]: 0 RU
100 nM hTrkB-mFc Bound (RU) [4]: 42 RU
Kd [4]: 0.0733 nM
koff [4]: 0.000208 s⁻¹
kon [4]: 2.83e+06 M⁻¹ s⁻¹
t½ [4]: 56 min
B2: H4H9814P (antibody, human IgG4 S228P, kappa, V domains shown)
VH: EVQLVESGGGLVQPGGSLKLSCTASGFTFSGSVIHWVRQASGKGLEWIGRIRNKANSYATAYGASVTGRFTISRDDSKNTAYLQMNSLKTEDTAVYYCTFPGVVGRGGFDYWGQGTLVTVSS
VL: DIVMTQSPDSLAVSLGEGATINCMSSQSVLFSSNNKNYLAWYQQKPGQPPKLLFYWASTRESGVPDRFGGSGSGTDFSLTINSLQTEDVAVYYCLQYYSIPWTFGQGTKVEIKR
notes: Fully human anti-human TrkB agonist antibody, human IgG4 Fc; also called H4H9814P-L1

% Blockade with 100 nM antibody (mouse TrkB.hFc [5]): 11.6%
Activation (%), SRE-luciferase, 100 pM BDNF [6]: 52%
Activation (%), SRE-luciferase, No BDNF [6]: 4%
Activation (%), SRE-luciferase, 100 pM BDNF [7]: 75%
Activation (%), SRE-luciferase, No BDNF [7]: 87%
EC50 (M), SRE-luciferase, 100 pM BDNF [7]: 2.1e-11 M
EC50 (M), SRE-luciferase, No BDNF [7]: 3.4e-11 M
mAb Binding (nm) (mouse TrkB.hFc [8]): 0.42 nm
B3: M2aM14179N (antibody, mouse IgG2a, kappa, V domains shown)
VH: EVQLQQSGPELVKPGASVKISCKASGYTLTDYYMNWVKQSHGKSLEWIGDINPNNGGTSYNQKFKGKATLTVDKSSSTAYMELRSLTSEDSAVYYCARGAYYSNYFDYWGQGTTLTVSS
VL: DIVMSQSPSSLAVSAGEKVTMSCKSSQSLLNSRTRKNYLAWYQQKPGQSPKLLIYWASTRESGVPDRFTGSGSGTDFTLTISSVQAEDLAVYYCKQSYILFTFGSGTQLEIKR
notes: Anti-mouse TrkB antibody from hybridoma, mouse IgG2a Fc; also called surrogate anti-mouse TrkB antibody

% Blockade with 100 nM antibody (mouse TrkB.hFc [5]): 29.7%
Activation (%), SRE-luciferase, 100 pM BDNF [6]: 59%
Activation (%), SRE-luciferase, No BDNF [6]: 2%
Activation (%), SRE-luciferase, 100 pM BDNF [7]: 74%
Activation (%), SRE-luciferase, No BDNF [7]: 94%
EC50 (M), SRE-luciferase, 100 pM BDNF [7]: 1.7e-11 M
EC50 (M), SRE-luciferase, No BDNF [7]: 3.6e-11 M
mAb Binding (nm) (mouse TrkB.hFc [8]): 0.42 nm
B4: M2aM14173N (antibody, mouse IgG2a, kappa, V domains shown)
VH: NVSLVESGGGSVKPGGSLQLSCAASGFTFSSSAMSWIRQTPEMRLEWVATISDRGSYTYYPDSVEGRFTISRDNAKNILYLQMSHLMSEDTAMYYCARGKGEKAYYTAFFAYWGQGSLVTVSA
VL: DIQMTQSPASLSASVGETVTITCRASENIYSYLAWYQQKPGKSPHLLVHNAETLAEGVPSRFSGSGSGPQFSLKINSLQPGDSGTYYCQHHYSSPWTFGGGTKLEIKR
notes: as for B3

% Blockade with 100 nM antibody (mouse TrkB.hFc [5]): 91.5%
IC50 (mouse TrkB.hFc [5]): 0.18 nM
Activation (%), SRE-luciferase, 100 pM BDNF [6]: 79%
Activation (%), SRE-luciferase, No BDNF [6]: 80%
EC50 (M), SRE-luciferase, 100 pM BDNF [6]: 1.1e-10 M
EC50 (M), SRE-luciferase, No BDNF [6]: 5.7e-11 M
Activation (%), SRE-luciferase, 100 pM BDNF [7]: 69%
Activation (%), SRE-luciferase, No BDNF [7]: 85%
EC50 (M), SRE-luciferase, 100 pM BDNF [7]: 4.2e-11 M
EC50 (M), SRE-luciferase, No BDNF [7]: 4.3e-11 M
mAb Binding (nm) (mouse TrkB.hFc [8]): 0.42 nm
B5: H1M8037C (antibody, mouse IgG1, kappa, V domains shown)
VH: QVQLVQSGAEVKKPGASVKVSCKASGYTFTNYDIIWVRQAPGQGLEWMGYINPYNDGTKYNEKFKGRVTMTRDTSTSTVYMELSSLRSEDTAVYYCARLLKYRRFRYYAIDYWGQGTTVTVSS
VL: DIQMTQSPSSLSASVGDRVTITCRTSENVYSNLAWYQQKPGKAPKLLIYAASNLQSGVPSRFSGSGSGTDYTFTISSLQPEDIATYYCQHFWGSPFTFGQGTKLEIKR
notes: captured by anti-mFc in SPR; also called Comparator; comparator anti-TrkB monoclonal antibody

100 nM rTrkB.mmH Bound (RU) [1]: 0 RU
binding result [1]: no binding (tested: 100 nM)
100 nM hTrkB.mmH Bound (RU) [2]: 12 RU
Kd [2]: 70.8 nM
koff [2]: 0.00374 s⁻¹
kon [2]: 52800 M⁻¹ s⁻¹
t½ [2]: 3.1 min
100 nM mTrkBmmH Bound (RU) [3]: 0 RU
100 nM hTrkB-mFc Bound (RU) [4]: 14 RU
Kd [4]: 3.46 nM
koff [4]: 0.00024 s⁻¹
kon [4]: 69500 M⁻¹ s⁻¹
t½ [4]: 48 min
B6: H4H9816P2 (antibody, human IgG4 S228P, kappa, V domains shown)
VH: EVQLVESGGGLVQPGGSLTLSCAASGFNFRDYEMIWVRQTPGKGLEWISYISNSGYTIYYADSVKGRFTISRDNARNSIYLQVNSLRAEDTAVYYCSRRTTMIRGIRAYYYYGLDVWGQGTTVTVSS
VL: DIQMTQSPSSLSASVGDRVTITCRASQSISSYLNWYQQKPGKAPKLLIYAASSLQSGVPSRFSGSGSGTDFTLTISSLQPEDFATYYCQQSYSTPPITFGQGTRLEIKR
notes: Fully human anti-human TrkB agonist antibody, human IgG4 Fc; also called H4H9816P-L1

From patent US20190161551A1 (Regeneron, published 2019)
